From patent publication US20200308301A1 (Novartis, published 2020)
Numbering of substitutions follows the chain as printed.

B1: IDT6 (Fab, V domains shown)
VH: QVQLVQSGAEVKKPGESLKISCKGSGYSFTNYWIGWVRQMPGKGLEWMGIIFPGVSYTKYSPSFQGQVTISADKSISTAYLQWSSLKASDTAMYYCARGSDQTLRGSRAMDYWGQGTLVTVSS
VL: QSALTQPASVSGSPGQSITISCTGTSSDVGISNYVSWYQQHPGKAPKLMIYEVSNRPSGVSNRFSGSKSGNTASLTISGLQAEDEADYYCQSYTSLNYVFGGGTKLTVLG
notes: Fab with a lambda light chain; also called anti-NOV1401 Fab IDT6
B2: IDT11 (antibody, human IgG1, kappa, V domains shown)
VH: QVQLLESGGGLVQPGGSLRLSCAASGFTFSDYAMSWVRQAPGKGLEWVSVIDYSSSNTYYADSVKGRFTISRDNSKNTLYLQMNSLRAEDTAVYYCAREGYSYRSIRFDYWGQGTLVTVSS
VL: DIQMTQSPSSLSASVGDRVTITCRASQSISSNLNWYQQKPGKAPKLLIYAASNLQSGVPSRFSGSGSGTDFTLTISSLQPEDFATYYCLQFDHTPFTFGQGTKVEIKR
notes: also called anti-NOV1401 IgG IDT11; full length IgG format for IDT1
B3: IDT2 (Fab, V domains shown)
VH: QVQLVESGGGLVKPGGSLRLSCAASGFTFSSAAVHWVRQAPGKGLEWVGRIKSKADGGTTDYAAPVKGRFTISRDDSKNTLYLQMNSLKTEDTAVYYCARDSPSISSYSIPYFSGMDVWGQGTLVTVSS
VL: DIQMTQSPSSLSASVGDRVTITCRASQGIRAWLNWYQQKPGKAPKLLIYAASSLQSGVPSRFSGSGSGTDFTLTISSLQPEDFATYYCHQYITHPPTFGQGTKVEIKR
notes: Fab; also called anti-NOV1401 Fab IDT2
B4: IDT7 (Fab, V domains shown)
VH: QVQLVESGGGLVKPGGSLRLSCAASGFTFSSNAMHWVRQAPGKGLEWVGRIKSKTDGGTTDYAAPVKGRFTISRDDSKNTLYLQMNSLKTEDTAVYYCARDHYYYPFAYWGQGTLVTVSS
VL: B3 VL with G28S, A31Y, W32N, N34A, T93A, H94K, P96I
notes: Fab; also called anti-NOV1401 Fab IDT7
B5: IDT12 (antibody, human IgG1, kappa, V domains shown)
VH: B3 VH
VL: B3 VL
notes: also called anti-NOV1401 IgG IDT12; full length IgG format for IDT2
B6: IDT9 (Fab, V domains shown)
VH: QVQLVQSGAEVKKPGASVKVSCKASGYTFTNYYVHWVRQAPGQGLEWMGWINPYNGNTNYAQKFQGRVTMTRDTSISTAYMELSRLRSEDTAVYYCARGASSIRMSYYLDVWGQGTLVTVSS
VL: B2 VL with S31N, N32Y, L89F, F91Y, D92T, T94S, F96A
notes: Fab; also called anti-NOV1401 Fab IDT9
B7: IDT5 (Fab, V domains shown)
VH: B3 VH with G57A
VL: B3 VL
notes: Fab; also called anti-NOV1401 Fab IDT5
B8: IDT3 (Fab, V domains shown)
VH: B3 VH with S30Q
VL: B3 VL
notes: Fab; also called anti-NOV1401 Fab IDT3
B9: IDT10 (Fab, V domains shown)
VH: B6 VH with N55S
VL: B2 VL with S31N, N32Y, L89F, F91Y, D92T, T94S, F96A
notes: Fab; also called anti-NOV1401 Fab IDT10
B10: IDT8 (Fab, V domains shown)
VH: B4 VH with D56S
VL: B3 VL with G28S, A31Y, W32N, N34A, T93A, H94K, P96I
notes: Fab; also called anti-NOV1401 Fab IDT8
B11: IDT4 (Fab, V domains shown)
VH: B3 VH with D56S
VL: B3 VL
notes: Fab; also called anti-NOV1401 Fab IDT4

What follows are binders tested against NOV1401 (assay: cell-based or functional assay).

aPTT percentage reversal, NOV1401/anti NOV1401 ratio 1/1 (n/n) [%]	aPTT percentage reversal, NOV1401/anti NOV1401 ratio 1/3 (n/n) [%]	aPTT percentage reversal, NOV1401/anti NOV1401 ratio 1/10 (n/n) [%]	Binder
9	22	38	B1
19	55	57	B2
21	42	55	B3
16	37	54	B4
9	51	61	B5
10	25	46	B6
17	42	56	B7
9	35	58	B8
12	25	40	B9
8	25	42	B10
10	27	39	B11

What follows are binders tested against T1, NOV1401 (assay: SET (solution equilibrium titration): constant anti-NOV1401 Fab with a NOV1401 dilution series, free Fab captured on a biotinylated-NOV1401 streptavidin plate, luminescence (RLU), 1:1 fit).
T1 construct: It was amine-coupled to the chip in SPR, and used soluble and biotinylated in SET; also called anti-FXI/FXIa antibody NOV1401; anti-Factor XI/FXIa antibody NOV1401
Procedure: (§1) 14 serial (2×) dilutions of NOV1401 were prepared in sample buffer (PBS pH 7.4 containing 0.5% (w/v) BSA and 0.02% Tween 20) and a constant concentration of the anti-NOV1401 Fab or IgG was added to each NOV1401 concentration ranging from 40 pM to 240 pM. Optimal constant anti-NOV1401 Fab or IgG concentrations and optimal starting concentrations for NOV1401 dilution series were determined in pilot experiments.
(§2) After incubation and three times washing with PBST (PBS containing 0.05% Tween 20) 30 μl/well of the NOV1401/anti-NOV1401 Fab or IgG preparation was transferred from the polypropylene MTP to the NOV1401-coated SA plate and incubated for 30 min at RT on a MTP shaker. After three additional wash steps, 30 μl of 0.5 μg/ml detection antibody (Goat anti-human Kappa LC-HRP, BETHYL # A80-115P) diluted in sample buffer was added to each well and incubated for 1 h at RT with shaking. […] Electrochemiluminescence (ECL) signals were generated and detected immediately with a luminescence imager (SpectraMax M5, Molecular Devices, LLC).
(§3) Average ECL-signals were calculated from duplicate measurements within each assay. […] KD values were determined by fitting the plot with the following non-linear curve fitting model for 1:1 binding according to Haenel et al 2005: […]
Target sequence in this assay (VL, as listed by the source): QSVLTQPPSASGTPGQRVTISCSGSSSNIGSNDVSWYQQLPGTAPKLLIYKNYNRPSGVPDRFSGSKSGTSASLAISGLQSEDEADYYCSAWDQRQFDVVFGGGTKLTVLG

Kd [nM]	Binder
0.16	B4
0.96	B10

The binders below were run against T1, NOV1401 (assay: Solution equilibrium titration (SET), IgG, 1:1 fit, average).
Procedure: as §1, §2, §3
Target sequence in this assay (VL, as listed by the source): as above

Kd [nM]	Binder
0.0007	B2
0.0051	B5

What follows are binders tested against T2, Human plasma-derived FXIa (human, UniProt P03951 19-625) (assay: SPR, FXIa immobilized on GLC chip).
T2 construct: also called Factor XIa
Procedure: SPR experiments were performed in principle as described in Example 2 with the following changes. Human plasma-derived FXIa was used as ligand and immobilized on an activated ProteOn GLC sensor chip (Bio-Rad Laboratories, Inc.) using standard amine coupling procedures as described and by injecting FXIa at a concentration of 10 μg/ml in 20 mM sodium acetate, pH 5.0 and at a flow rate of 30 μl/min for 10 min.
For binding competition studies NOV1401 and three mixture of NOV1401 with anti-NOV1401 Fab at molar ratios of 1:1, 1:2, and 1:10 were prepared in PBS/T buffer and injected in simultaneously onto surfaces with immobilized FXI at a flow rate of 100 μL/min. Sensorgrams were recorded for association and dissociation times of 220 s and 1800 s, respectively. Blank surfaces were used for background corrections.

T2 sequence (P03951 19-625 C226S limits assumed): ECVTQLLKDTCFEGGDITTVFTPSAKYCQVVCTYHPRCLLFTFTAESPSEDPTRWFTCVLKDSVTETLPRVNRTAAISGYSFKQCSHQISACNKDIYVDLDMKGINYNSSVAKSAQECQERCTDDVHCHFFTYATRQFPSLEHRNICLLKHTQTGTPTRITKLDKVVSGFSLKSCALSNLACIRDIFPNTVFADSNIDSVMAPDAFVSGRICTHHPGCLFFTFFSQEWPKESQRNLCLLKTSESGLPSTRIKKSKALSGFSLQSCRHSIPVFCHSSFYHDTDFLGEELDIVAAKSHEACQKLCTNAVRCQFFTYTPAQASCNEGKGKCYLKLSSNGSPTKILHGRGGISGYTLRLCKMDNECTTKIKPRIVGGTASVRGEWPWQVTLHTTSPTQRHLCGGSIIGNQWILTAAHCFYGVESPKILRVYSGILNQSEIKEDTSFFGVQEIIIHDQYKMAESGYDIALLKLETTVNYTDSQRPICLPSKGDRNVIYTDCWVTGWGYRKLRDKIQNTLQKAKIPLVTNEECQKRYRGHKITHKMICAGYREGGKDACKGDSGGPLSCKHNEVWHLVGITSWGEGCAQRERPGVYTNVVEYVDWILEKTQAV

binding result	Binder
no binding	B8

These binders were tested against T1, NOV1401 (assay: cell-based or functional assay).

TGA percentage reversal, NOV1401/anti NOV1401 ratio 1/1 (n/n) [%]	TGA percentage reversal, NOV1401/anti NOV1401 ratio 1/3 (n/n) [%]	TGA percentage reversal, NOV1401/anti NOV1401 ratio 1/10 (n/n) [%]	Binder
18	41	37	B1
50	59	67	B2
55	57	61	B3
50	66	71	B4
60	64	62	B5
41	61	72	B6
55	56	72	B7
31	47	67	B8
37	45	57	B9
41	56	69	B10
33	53	60	B11

These binders were tested against T1, NOV1401 (assay: Solution equilibrium titration (SET), 1:1 fit, average).
Procedure: as §1
After incubation and three times washing with PBST (PBS containing 0.05% Tween 20) 30 μl/well of the NOV1401/anti-NOV1401 Fab or IgG preparation was transferred from the polypropylene MTP to the NOV1401-coated SA plate and incubated for 30 min at RT on a MTP shaker. After three additional wash steps, 30 μl of 0.5 μg/ml detection antibody (Goat anti-human Kappa LC-HRP, BETHYL # A80-115P) diluted in sample buffer was added to each well and incubated for 1 h at RT with shaking. After washing the plate again three times, 30 μl of detection reagent (LumiGLO Peroxidase Chemiluminescent Substrate, KPL #54-61-01) was added to each well. Electrochemiluminescence (ECL) signals were generated and detected immediately with a luminescence imager (SpectraMax M5, Molecular Devices, LLC).
Average ECL-signals were calculated from duplicate measurements within each assay. Data were baseline adjusted by subtracting the lowest value from all data points and plotted against the corresponding antigen concentration. KD values were determined by fitting the plot with the following non-linear curve fitting model for 1:1 binding according to Haenel et al 2005: […]

Kd [nM]	Binder
0.1	B3
0.96	B4
0.68	B6
0.14	B7
0.1	B8
1.19	B9
0.16	B10
0.97	B11

Each binder was assayed against T1, NOV1401 (assay: SPR (ProteOn XPR36), NOV1401 immobilized, Fab as analyte, 1:1 Langmuir fit, average).
Procedure: SPR binding experiments were performed on a ProteOn XPR36 instrument (Bio-Rad Laboratories, Inc.) in PBS/T buffer (50 mM phosphate, 150 mM NaCl, pH 7.4, 0.005% v/v Tween-20) at 25° C. NOV1401 (‘Ligand’) was immobilized onto an activated ProteOn GLC sensor chip (Bio-Rad Laboratories, Inc.) using standard amine coupling procedures as described by the manufacturer. Briefly, NOV1401 was injected at a concentration of 10 μg/ml in 20 mM sodium acetate, pH 5.0 and at a flow rate of 30 μl/min for 10 min. Unreacted groups were blocked by injecting 1 M ethanolamine.
For kinetic studies anti-NOV1401 Fabs (‘Analytes’) were diluted in PBS/T buffer to generate a dilution series with concentrations ranging from 0.125-4 nM. Fabs were injected onto surfaces with immobilized NOV1401 at a flow rate of 100 μL/min and sensorgrams were recorded for association and dissociation times of 220 s and 1800 s, respectively. Blank surfaces were used for background corrections. There was no need to regenerate surfaces since the ProteOn protein interaction array system allows to run up to six binding experiments on an identical surface in parallel.
Data processing and analysis including kon, koff, and KD determination were performed with the ProteOn Manager™ software version 3.1.0.6.

Kd [nM]	Binder
10.1	B1
0.23	B3
0.33	B4
1.92	B6
0.35	B7
0.24	B8
5.97	B9
2.15	B10
0.31	B11
